B1: SLC19A2 (parent)
chain: IYPVWTYSYLVLLFPVFLATDYLR
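Also: lentivirally expressed fusions sorted by FACS into six bins by GFP to DsRed ratio, PSI derived from sequencing read proportions per bin multiplied by bin number.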

Variants of: B1
Test: protein stability index of a GFP-peptide fusion (GPS, HEK-293T) (PSI 1-6); higher = more stable
Conditions: c terminus: a fixed tail appended
Work on IYPVWTYLYLVLLFPVFLATDYLR yielded a protein stability index of 2.69. Work on IYPVWTYPYLVLLFPVFLATDYLR yielded a protein stability index of 3.7. IYPVWTYEYLVLLFPVFLATDYLR gave a protein stability index of 3.31. IYPVWTYIYLVLLFPVFLATDYLR gave a protein stability index of 2.41. For IYPVWTYAYLVLLFPVFLATDYLR, the protein stability index was 4.5. With IYPVWTYMYLVLLFPVFLATDYLR the protein stability index was 3.15. For IYPVWTYGYLVLLFPVFLATDYLR, the protein stability index was 2.84. Work on IYPVWTYKYLVLLFPVFLATDYLR yielded a protein stability index of 3.14. With IYPVWTYCYLVLLFPVFLATDYLR the protein stability index was 3.17. Variant IYPVWTYQYLVLLFPVFLATDYLR has a protein stability index of 3.59. Work on IYPVWTYRYLVLLFPVFLATDYLR yielded a protein stability index of 3.57. For IYPVWTYDYLVLLFPVFLATDYLR, the protein stability index was 3.67. Variant IYPVWTYWYLVLLFPVFLATDYLR has a protein stability index of 2.99. In the case of IYPVWTYFYLVLLFPVFLATDYLR, the protein stability index is reported as 2.43. Variant IYPVWTYHYLVLLFPVFLATDYLR has a protein stability index of 3.06. For IYAVWTYSYLVLLFPVFLATDYLR, the protein stability index was 3.47. IYHVWTYSYLVLLFPVFLATDYLR gave a protein stability index of 3.02. For IYYVWTYSYLVLLFPVFLATDYLR, the protein stability index was 2.94. Variant IYWVWTYSYLVLLFPVFLATDYLR has a protein stability index of 3.05. Work on IYSVWTYSYLVLLFPVFLATDYLR yielded a protein stability index of 3.26. With IYKVWTYSYLVLLFPVFLATDYLR the protein stability index was 2.02. Work on IYGVWTYSYLVLLFPVFLATDYLR yielded a protein stability index of 3.79. In the case of IYCVWTYSYLVLLFPVFLATDYLR, the protein stability index is reported as 3.34. IYNVWTYSYLVLLFPVFLATDYLR showed a protein stability index of 2.57. IYEVWTYSYLVLLFPVFLATDYLR gave a protein stability index of 2.5. Work on IYLVWTYSYLVLLFPVFLATDYLR yielded a protein stability index of 3.98. IYPNWTYSYLVLLFPVFLATDYLR showed a protein stability index of 3.44. Work on IYPTWTYSYLVLLFPVFLATDYLR yielded a protein stability index of 3.3. For IYPQWTYSYLVLLFPVFLATDYLR, the protein stability index was 3.11. Work on IYPEWTYSYLVLLFPVFLATDYLR yielded a protein stability index of 3.43. IYPMWTYSYLVLLFPVFLATDYLR gave a protein stability index of 2.76. Variant IYPLWTYSYLVLLFPVFLATDYLR has a protein stability index of 3.73. For IYPHWTYSYLVLLFPVFLATDYLR, the protein stability index was 3.32. IYPAWTYSYLVLLFPVFLATDYLR gave a protein stability index of 2.73. IYPFWTYSYLVLLFPVFLATDYLR gave a protein stability index of 3.35. Variant IYPKWTYSYLVLLFPVFLATDYLR has a protein stability index of 2.96. For IYPCWTYSYLVLLFPVFLATDYLR, the protein stability index was 2.33. With IYPGWTYSYLVLLFPVFLATDYLR the protein stability index was 3.35. With IYPDWTYSYLVLLFPVFLATDYLR the protein stability index was 2.85. Work on IYPIWTYSYLVLLFPVFLATDYLR yielded a protein stability index of 3.46. IYPYWTYSYLVLLFPVFLATDYLR gave a protein stability index of 2.91. For IYPSWTYSYLVLLFPVFLATDYLR, the protein stability index was 3.21. Work on LYPVWTYSYLVLLFPVFLATDYLR yielded a protein stability index of 3.49. With WYPVWTYSYLVLLFPVFLATDYLR the protein stability index was 2.38. In the case of YYPVWTYSYLVLLFPVFLATDYLR, the protein stability index is reported as 1.63. Work on HYPVWTYSYLVLLFPVFLATDYLR yielded a protein stability index of 4.44. SYPVWTYSYLVLLFPVFLATDYLR gave a protein stability index of 2.54. Variant TYPVWTYSYLVLLFPVFLATDYLR has a protein stability index of 3.48. Variant GYPVWTYSYLVLLFPVFLATDYLR has a protein stability index of 2.67. Variant FYPVWTYSYLVLLFPVFLATDYLR has a protein stability index of 2.21. In the case of MYPVWTYSYLVLLFPVFLATDYLR, the protein stability index is reported as 2.3. PYPVWTYSYLVLLFPVFLATDYLR showed a protein stability index of 3.33. Variant VYPVWTYSYLVLLFPVFLATDYLR has a protein stability index of 4.95. AYPVWTYSYLVLLFPVFLATDYLR gave a protein stability index of 2.12. Work on RYPVWTYSYLVLLFPVFLATDYLR yielded a protein stability index of 1.87. NYPVWTYSYLVLLFPVFLATDYLR gave a protein stability index of 2.98. Work on IYPVETYSYLVLLFPVFLATDYLR yielded a protein stability index of 3.02. IYPVRTYSYLVLLFPVFLATDYLR gave a protein stability index of 3.39. For IYPVITYSYLVLLFPVFLATDYLR, the protein stability index was 4.83. For IYPVNTYSYLVLLFPVFLATDYLR, the protein stability index was 2.25. IYPVGTYSYLVLLFPVFLATDYLR gave a protein stability index of 4.5. Work on IYPVFTYSYLVLLFPVFLATDYLR yielded a protein stability index of 3.25. With IYPVSTYSYLVLLFPVFLATDYLR the protein stability index was 2.89. For IYPVHTYSYLVLLFPVFLATDYLR, the protein stability index was 3.15. IYPVCTYSYLVLLFPVFLATDYLR gave a protein stability index of 3.27. Work on IYPVPTYSYLVLLFPVFLATDYLR yielded a protein stability index of 3.19. IYPVKTYSYLVLLFPVFLATDYLR showed a protein stability index of 4.35. Variant IYPVDTYSYLVLLFPVFLATDYLR has a protein stability index of 2.3. IYPVMTYSYLVLLFPVFLATDYLR gave a protein stability index of 2.65. IYPVYTYSYLVLLFPVFLATDYLR gave a protein stability index of 2.72. In the case of IYPVATYSYLVLLFPVFLATDYLR, the protein stability index is reported as 3.28. IYPVLTYSYLVLLFPVFLATDYLR gave a protein stability index of 2.19. Variant IYPVVTYSYLVLLFPVFLATDYLR has a protein stability index of 2.65. Work on IYPVWRYSYLVLLFPVFLATDYLR yielded a protein stability index of 2.39. IYPVWKYSYLVLLFPVFLATDYLR showed a protein stability index of 3.04. In the case of IYPVWQYSYLVLLFPVFLATDYLR, the protein stability index is reported as 2.73. IYPVWLYSYLVLLFPVFLATDYLR showed a protein stability index of 4.55. Variant IYPVWNYSYLVLLFPVFLATDYLR has a protein stability index of 3.48. Work on IYPVWVYSYLVLLFPVFLATDYLR yielded a protein stability index of 2.9. In the case of IYPVWYYSYLVLLFPVFLATDYLR, the protein stability index is reported as 3.51. IYPVWSYSYLVLLFPVFLATDYLR showed a protein stability index of 2.86. In the case of IYPVWMYSYLVLLFPVFLATDYLR, the protein stability index is reported as 2.95. IYPVWHYSYLVLLFPVFLATDYLR gave a protein stability index of 3.42. IYPVWEYSYLVLLFPVFLATDYLR gave a protein stability index of 2.71. For IYPVWAYSYLVLLFPVFLATDYLR, the protein stability index was 2.63. Work on IYPVWDYSYLVLLFPVFLATDYLR yielded a protein stability index of 2.08. Variant ILPVWTYSYLVLLFPVFLATDYLR has a protein stability index of 2.15. Variant IFPVWTYSYLVLLFPVFLATDYLR has a protein stability index of 3.09. For ISPVWTYSYLVLLFPVFLATDYLR, the protein stability index was 2.56. IDPVWTYSYLVLLFPVFLATDYLR gave a protein stability index of 2.77. Variant IVPVWTYSYLVLLFPVFLATDYLR has a protein stability index of 3.19. IMPVWTYSYLVLLFPVFLATDYLR showed a protein stability index of 3.15. Work on IQPVWTYSYLVLLFPVFLATDYLR yielded a protein stability index of 3.11. For IWPVWTYSYLVLLFPVFLATDYLR, the protein stability index was 3.59.

Source: the supplement of paper PMC10567573
